Measurements from US20070243571A1, “Method for Measurement of Activity of Homocysteinethiolactone Hydrolyzing Enzyme” (priority 2004, published 2007).
Where two headings read alike, the source gives them in different places.

Key:
[1] = target: T1, Human butyrylcholinesterase (Homo sapiens, UniProt P06276); test: Hydrolysis of substrate by purified human cholinesterase; format: biochemical; settings: 2.0 U/ml human butyrylcholinesterase solution as sample
T1 construct: purchased Boehringer 348643
Experimental: Human butyrylcholinesterase (348643, Boehringer) was dissolved in purified water to prepare a 2.0 U/ml solution.
(§1) Following the above parameters, purified water, 15 μl of a sample and 200 μl of reagent 1(A) or 1(B) or 1(C) or 1(D) was dispensed and mixed, and, after a certain length of time at a constant temperature (37° C., 5 min), 50 μl of reagent 2 was added and mixed to allow reaction to start. When reagent 2 was added to the mixture of the fraction containing serum, plasma, albumin or HDL and reagent 1(A), 1(C) or 1(D), increase in absorbance was detected which was due to the reaction of the SH-group detection reagent with DL-homocysteine, which has a free SH group, formed by hydrolysis of HTL.
as §1, with “parameters,” for “parameters, purified water,”, “cholinesterase” for “albumin”, “1(A),” for “1(A), 1(C) or 1(D),”, “4-mercaptobutyric acid,” for “DL-homocysteine,”, “by” for “by hydrolysis”, “HTL hydrolyzing enzyme.” for “HTL.”

[2] = Autolysis of the substrate in reagent-blank (purified water as sample); format: physicochemical; settings: HTL, MOPS buffer pH 7.8, purified water as sample
Experimental: as §1
As evident from FIG. 2, increase in absorbance is suppressed when calcium ion is blocked by EDTA.
as §1, with “parameters,” for “parameters, purified water,”, “cholinesterase” for “albumin”, “1(A),” for “1(A), 1(C) or 1(D),”, “4-mercaptobutyric acid,” for “DL-homocysteine,”, “by” for “by hydrolysis”, “HTL hydrolyzing enzyme.” for “HTL.”
As evident from FIG. 4, increase in absorbance is suppressed when calcium ion is not present. […]

[3] = system: HTL hydrolyzing enzyme; test: Measurement of hydrolyzing enzyme activity for HTL (DTNB rate assay, H-7170 analyzer); format: biochemical, human; settings: substrate DL-HTL
Experimental: Hydrolyzing enzyme activity for HTL was measured with purified water and above-mentioned samples.
Reagent 1(A): SH-group detection solution; 0.2 M MOPS buffer containing 0.5 mM CaCl2 and 1.0 mM DTNB (pH 7.8).
Reagent 1(B): SH-group detection solution; 0.2 M MOPS buffer containing 2 mM EDTA and 1.0 mM DTNB (pH 7.8).
Reagent 1(C): SH-group detection solution; 0.2 M MOPS buffer containing 0.5 mM CaCl2, 0.1 mM physostigmine sulfate and 1.0 mM DTNB (pH 7.8).
Reagent 1(D): SH-group detection solution; 0.2 M MOPS buffer containing 0.5 mM CaCl2, 0.1 mM neostigmine bromide and 1.0 mM DTNB (pH 7.8).
Reagent 2: substrate solution; aqueous solution containing 125 mM DL-HTL (Tokyo Chemical Industry Co., Ltd).
For measurement of HTL hydrolyzing enzyme activity, H-7170 automatic analyzer (Hitachi, Ltd.) was used. Parameters for measurement were as follows.
Following the above parameters, purified water, 15 μl of a sample and 200 μl of reagent 1(A) or 1(B) or 1(C) or 1(D) was dispensed and mixed, and, after a certain length of time at a constant temperature (37° C., 5 min), 50 μl of reagent 2 was added and mixed to allow reaction to start.
(§2) The activity value of HTL hydrolyzing enzyme in each sample was calculated based on: the change in absorbance per unit of time (1 min) (ΔE) from 2-minute up to 4-minute time points after the addition of the substrate (reagent 2), the molecular extinction coefficient of 5-thio-2-nitrobenzoic acid at the wavelength of 480 nm, ε=2509, and the molecular extinction coefficient of the compound at the wavelength of 546 nm, ε=78.

[4] = system: HTL hydrolyzing enzyme; test: Measurement of hydrolyzing enzyme activity for TBL (DTNB rate assay, H-7170 analyzer); format: biochemical, human; settings: substrate TBL
Experimental: Hydrolyzing enzyme activity for TBL was measured with above-mentioned samples and unprepared serum.
Reagent 1(A): SH-group detection solution; 0.2 M MOPS buffer containing 0.5 mM CaCl2 and 1.0 mM DTNB (pH 7.2).
Reagent 1(B): SH-group detection solution; 0.2 M MOPS buffer containing 2 mM EDTA and 1.0 mM DTNB (pH 7.2).
Reagent 1(C): SH-group detection solution; 0.2 M MOPS buffer containing 0.5 mM CaCl2, 0.1 mM physostigmine sulfate and 1.0 mM DTNB (pH 7.2).
Reagent 1(D): SH-group detection solution; 0.2 M MOPS buffer containing 0.5 mM CaCl2, 0.1 mM neostigmine bromide and 1.0 mM DTNB (pH 7.2).
Reagent 2: substrate solution; aqueous solution containing 125 mM TBL (Aldrich).
For measurement of hydrolyzing enzyme activity TBL, H-7170 automatic analyzer (Hitachi, Ltd.) was used. Parameters for measurement were as follows.
Following the above parameters, 15 μl of a sample and 200 μl of reagent 1(A) or 1(B) or 1(C) or 1(D) was dispensed and mixed, and, after a certain length of time at a constant temperature (37° C., 5 min), 50 μl of reagent 2 was added and mixed to allow reaction to start.
as §2, with “enzyme for TBL” for “enzyme”

[5] = target: cholinesterase (Homo sapiens, UniProt P06276); settings: Nescoat ChE V-2 according to the package insert
Experimental: Cholinesterase activity was measured with the above-mentioned samples and unprepared serum. Measurement of cholinesterase activity was carried out using Nescoat ChE V-2 (Alfresa Pharma Coporation) according to the package insert.

| Molecule | hydrolysis by purified human cholinesterase [1] | stability of substrate in the reaction solution (autolysis, increase in absorbance of reagent-blank) [2] | activity value of HTL hydrolyzing enzyme, No addition ([3]; Reagent 1(A): 0.5 mM CaCl2, pH 7.8, 37° C., no inhibitor) | activity value of HTL hydrolyzing enzyme, EDTA.2Na ([3]; Reagent 1(B): 2 mM EDTA, pH 7.8, 37° C.) | activity value of HTL hydrolyzing enzyme, Physostigmine sulfate ([3]; Reagent 1(C): 0.5 mM CaCl2, 0.1 mM physostigmine sulfate, pH 7.8, 37° C.) | activity value of HTL hydrolyzing enzyme, Neostigmine bromide ([3]; Reagent 1(D): 0.5 mM CaCl2, 0.1 mM neostigmine bromide, pH 7.8, 37° C.) | activity value of HTL hydrolyzing enzyme for TBL, No addition ([4]; Reagent 1(A): 0.5 mM CaCl2, pH 7.2, 37° C., no inhibitor) | activity value of HTL hydrolyzing enzyme for TBL, EDTA.2Na ([4]; Reagent 1(B): 2 mM EDTA, pH 7.2, 37° C.) | activity value of HTL hydrolyzing enzyme for TBL, Physostigmine sulfate ([4]; Reagent 1(C): 0.5 mM CaCl2, 0.1 mM physostigmine sulfate, pH 7.2, 37° C.) | activity value of HTL hydrolyzing enzyme for TBL, Neostigmine bromide ([4]; Reagent 1(D): 0.5 mM CaCl2, 0.1 mM neostigmine bromide, pH 7.2, 37° C.) | Cholinesterase activity [5] | Cholinesterase activity ([5]; listed as human cholinesterase) |
| --- | --- | --- | --- | --- | --- | --- | --- | --- | --- | --- | --- | --- |
| NC1CCSC1=O (stereo not drawn) [HTL, homocysteinethiolactone] | not hydrolyzed | unstable in the reaction solution |  |  |  |  |  |  |  |  |  |  |
| Cholinesterase: Human butyrylcholinesterase (348643, Boehringer) dissolved in purified water, 2.0 U/ml solution (protein, UniProt P06276 29-602, looked up) Cholinesterase: EDDIIIATKNGKVRGMNLTVFGGTVTAFLGIPYAQPPLGRLRFKKPQSLTKWSDIWNATKYANSCCQNIDQSFPGFHGSEMWNPNTDLSEDCLYLNVWIPAPKPKNATVLIWIYGGGFQTGTSSLHVYDGKFLARVERVIVVSMNYRVGALGFLALPGNPEAPGNMGLFDQQLALQWVQKNIAAFGGNPKSVTLFGESAGAASVSLHLLSPGSHSLFTRAILQSGSFNAPWAVTSLYEARNRTLNLAKLTGCSRENETEIIKCLRNKDPQEILLNEAFVVPYGTPLSVNFGPTVDGDFLTDMPDILLELGQFKKTQILVGVNKDEGTAFLVYGAPGFSKDNNSIITRKEFQEGLKIFFPGVSEFGKESILFHYTDWVDDQRPENYREALGDVVGDYNFICPALEFTKKFSEWGNNAFFYYFEHRSSKLPWPEWMGVMHGYEIEFVFGLPLERRDNYTKAEEILSRSIVKRWANFAKYGNPNETQNNSTSWPVFKSTEQKYLTLNTESTRIMTKLRAQQCRFWTSFFPKVLEMTGNIDEAEWEWKAGFHRWNNYMMDWKNQFNDYTSKKESCVGL |  |  | 8 | 6 | −1 | −2 | 403 | 399 | 1 | 2 | 15392 | observed |
